Test results reported in publication PMC5389509.

T1: YxiN S108C/N444C (UniProt P42305 1-479, C61A;C267A;S108C;N444C)
T1 sequence: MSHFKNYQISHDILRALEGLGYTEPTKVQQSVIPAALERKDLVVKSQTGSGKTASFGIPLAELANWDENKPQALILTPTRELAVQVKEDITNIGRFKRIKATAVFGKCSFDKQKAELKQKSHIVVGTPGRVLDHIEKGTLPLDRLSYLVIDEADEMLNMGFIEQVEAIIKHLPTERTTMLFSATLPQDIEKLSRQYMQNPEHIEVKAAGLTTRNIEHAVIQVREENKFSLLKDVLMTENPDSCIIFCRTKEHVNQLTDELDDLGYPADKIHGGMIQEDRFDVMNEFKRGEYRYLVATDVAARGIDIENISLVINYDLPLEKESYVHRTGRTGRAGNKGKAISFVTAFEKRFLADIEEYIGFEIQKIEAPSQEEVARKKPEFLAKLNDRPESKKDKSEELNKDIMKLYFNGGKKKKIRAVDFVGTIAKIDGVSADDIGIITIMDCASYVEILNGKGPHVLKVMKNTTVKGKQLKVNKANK

T2: YxiN S108C/S229C (UniProt P42305 1-479, C61A;C267A;S108C;S229C)
T2 sequence: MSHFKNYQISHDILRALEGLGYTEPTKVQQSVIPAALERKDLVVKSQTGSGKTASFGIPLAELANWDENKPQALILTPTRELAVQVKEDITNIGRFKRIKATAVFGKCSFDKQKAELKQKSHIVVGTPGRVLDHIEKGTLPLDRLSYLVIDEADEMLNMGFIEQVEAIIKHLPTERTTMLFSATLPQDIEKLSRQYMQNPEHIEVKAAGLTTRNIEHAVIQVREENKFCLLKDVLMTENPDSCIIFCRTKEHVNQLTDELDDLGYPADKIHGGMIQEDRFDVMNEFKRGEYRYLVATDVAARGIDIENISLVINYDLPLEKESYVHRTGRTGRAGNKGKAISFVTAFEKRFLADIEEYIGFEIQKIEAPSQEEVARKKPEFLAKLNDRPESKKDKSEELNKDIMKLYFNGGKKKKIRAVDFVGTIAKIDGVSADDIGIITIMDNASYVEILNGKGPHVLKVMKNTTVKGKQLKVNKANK

T3: YxiN S108C/D429C (UniProt P42305 1-479, C61A;C267A;S108C;D429C)
T3 sequence: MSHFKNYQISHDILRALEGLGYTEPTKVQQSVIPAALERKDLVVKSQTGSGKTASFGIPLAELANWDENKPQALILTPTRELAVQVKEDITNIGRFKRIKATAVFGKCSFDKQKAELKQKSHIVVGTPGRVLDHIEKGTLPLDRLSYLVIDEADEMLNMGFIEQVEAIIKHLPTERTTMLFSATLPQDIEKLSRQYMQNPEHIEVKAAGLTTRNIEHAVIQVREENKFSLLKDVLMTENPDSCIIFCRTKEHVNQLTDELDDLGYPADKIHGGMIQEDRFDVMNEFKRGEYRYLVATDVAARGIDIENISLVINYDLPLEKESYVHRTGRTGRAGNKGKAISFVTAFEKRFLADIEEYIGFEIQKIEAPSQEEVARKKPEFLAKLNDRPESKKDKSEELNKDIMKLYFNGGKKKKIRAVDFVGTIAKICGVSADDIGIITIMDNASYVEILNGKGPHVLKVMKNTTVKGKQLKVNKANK

T4: YxiN S108C/N464C (UniProt P42305 1-479, C61A;C267A;S108C;N464C)
T4 sequence: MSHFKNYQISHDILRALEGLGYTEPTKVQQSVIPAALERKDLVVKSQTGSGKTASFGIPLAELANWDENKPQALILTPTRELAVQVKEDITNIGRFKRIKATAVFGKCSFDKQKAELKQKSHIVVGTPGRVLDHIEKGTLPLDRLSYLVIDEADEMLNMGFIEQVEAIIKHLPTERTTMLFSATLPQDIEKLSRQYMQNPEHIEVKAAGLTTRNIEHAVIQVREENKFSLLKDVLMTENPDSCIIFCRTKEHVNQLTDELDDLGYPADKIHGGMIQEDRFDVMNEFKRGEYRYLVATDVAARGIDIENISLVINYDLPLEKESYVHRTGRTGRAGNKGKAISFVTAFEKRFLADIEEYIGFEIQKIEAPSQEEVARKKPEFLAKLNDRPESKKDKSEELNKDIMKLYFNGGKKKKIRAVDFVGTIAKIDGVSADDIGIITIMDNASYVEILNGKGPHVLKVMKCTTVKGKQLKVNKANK

T5: YxiN A115C/S229C biotinylated (UniProt P42305 1-479, C61A;C267A;A115C;S229C)
T5 sequence: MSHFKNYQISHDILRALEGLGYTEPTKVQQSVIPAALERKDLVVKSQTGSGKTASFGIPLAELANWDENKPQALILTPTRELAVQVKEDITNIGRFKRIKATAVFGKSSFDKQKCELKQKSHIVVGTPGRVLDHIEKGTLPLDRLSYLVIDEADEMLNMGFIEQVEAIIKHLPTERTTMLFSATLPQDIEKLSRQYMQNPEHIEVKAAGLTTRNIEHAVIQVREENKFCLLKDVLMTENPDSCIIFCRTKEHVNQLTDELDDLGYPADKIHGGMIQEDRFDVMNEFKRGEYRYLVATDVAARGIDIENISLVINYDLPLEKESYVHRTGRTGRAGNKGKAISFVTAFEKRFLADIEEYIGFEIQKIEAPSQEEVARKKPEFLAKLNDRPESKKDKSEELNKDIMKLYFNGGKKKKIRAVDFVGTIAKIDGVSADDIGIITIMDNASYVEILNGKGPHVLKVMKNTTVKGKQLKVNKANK


What was measured:
YxiN S108C/N444C [1] = molecular target: T1, YxiN S108C/N444C; assay: fluorescence anisotropy
YxiN S108C/S229C = molecular target: T2, YxiN S108C/S229C; assay: smFRET
YxiN S108C/D429C = molecular target: T3, YxiN S108C/D429C; assay: smFRET
YxiN S108C/N464C = molecular target: T4, YxiN S108C/N464C; assay: smFRET
[2] = molecular target: T5, YxiN A115C/S229C biotinylated; assay: smFRET
YxiN S108C/N444C [3] = molecular target: T1, YxiN S108C/N444C; assay: smFRET

| Binder | Kd (YxiN S108C/N444C [1]) | binding result (YxiN S108C/S229C) | binding result (YxiN S108C/D429C) | binding result (YxiN S108C/N464C) | binding result [2] | binding result (YxiN S108C/N444C [3]) |
| --- | --- | --- | --- | --- | --- | --- |
| CGAGGUCCCAAGGGUUGGGCUGUUCGCCCAUU (structured_RNA) [32mer (FAM)] | 170 nM | – | – | – | – | – |
| CGAGGUCCCAAGGGUUGGGCUGUUCGCCCAUU (structured_RNA) [32mer] | – | binds | binds | binds | binds | – |
| UGGGCUGUUCGCCCAU (structured_RNA) [32merHairpin] | – | binds | – | – | – | binds |
